Experimental findings from patent US20140056907A1 (Regeneron, published 2014) are described below.

The target of one assay is T1, mouse ASIC1a (mouse, UniProt Q6NXK8 1-526).
T1 construct: whole, on cells; Expressed on stably transfected 3T3 cells (3T3/mASIC1a); also called mASIC1a
T1 sequence (looked up): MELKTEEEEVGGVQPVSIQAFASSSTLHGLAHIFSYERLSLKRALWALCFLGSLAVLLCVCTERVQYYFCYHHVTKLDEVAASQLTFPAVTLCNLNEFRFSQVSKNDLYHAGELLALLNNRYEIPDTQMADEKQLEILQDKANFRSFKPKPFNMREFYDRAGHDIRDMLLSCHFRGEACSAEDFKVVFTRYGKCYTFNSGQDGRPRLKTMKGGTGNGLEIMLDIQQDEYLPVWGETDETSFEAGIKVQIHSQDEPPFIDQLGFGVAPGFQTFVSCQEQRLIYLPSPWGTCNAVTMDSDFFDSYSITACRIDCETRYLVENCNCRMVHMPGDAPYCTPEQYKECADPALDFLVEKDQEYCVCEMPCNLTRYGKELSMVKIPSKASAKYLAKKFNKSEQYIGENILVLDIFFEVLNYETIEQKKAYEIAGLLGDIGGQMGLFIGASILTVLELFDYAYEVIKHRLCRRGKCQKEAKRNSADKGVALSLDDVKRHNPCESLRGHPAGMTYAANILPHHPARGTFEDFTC
Nature of the assay: FACS, 3T3/mASIC1a cells. The source says: To further characterize anti-ASIC1 antibodies, their ability to bind either (a) a mouse fibroblast 3T3 cell line stably transfected to overexpress full length human ASIC1 (3T3/hASIC1; amino acids 1-528 of NCBI accession number NP_{—}001086.2 [SEQ ID NO:401]), (b) a 3T3 cell line stably transfected to over express full length mouse ASIC1a (3T3/mASIC1a; amino acids 1-526 of NCBI accession number NP_{—}033727), or (c) a ND7 cell line (ECACC, #92090903) that is a fusion cell line of mouse neuroblastoma and rat dorsal root ganglia that endogenously expresses rat ASIC1, was determined using flow cytometry (FACS). ND7 cells were differentiated by replacing the culture media with low-serum media (0.5% FBS) containing 1 mM dibutyryl-cAMP (Cat. No. sc-201567A, Santa Cruz Biotechnology, Inc., Santa Cruz, Calif.). FACS binding was tested for some antibodies on both undifferentiated ND7 cells and differentiated ND7 cells.
To perform the FACS binding experiments, adherent cells were collected using 1 mM EDTA in PBS, then washed, and re-suspended in cold PBS containing 5% FBS. For each binding experiment, each anti-ASIC1 antibody (at final concentrations of 10 nM of purified antibodies or 3.3 nM for antibody supernatants for binding to 3T3/hASIC1 cells and 5 nM for binding to 3T3/mASIC1a or ND7 cells) was added to 250,000 cells in 500 μL of PBS with 5% FBS. After incubation for 20 minutes at room temperature, a secondary antibody which recognizes human Fc (Cat. No. 109-136-098, Jackson ImmunoResearch Laboratories, Inc., West Grove, Pa.) or mouse Fc (Cat. No. 550826, BD Biosciences, San Jose, Calif.) and is conjugated to allophycocyanin, was then added to the cell mixture at a final concentration of 13.3 nM. After incubating for 20 minutes on ice, the cells were washed and resuspended in PBS containing 5% FBS, then sorted and analyzed on a flow cytometer (FACSCalibur, BD Biosciences, San Jose, Calif.) to determine relative binding by the candidate antibodies to the tested cell lines. Histograms of cells stained with anti-ASIC1 antibodies were compared with those of cells stained with secondary antibody alone. Percentage of ASIC1 signal over secondary antibody alone was calculated using FlowJo software (Tree Star, Ashland, Oreg.).
For orientation: Flow cytometry measures light scatter and fluorescence of single cells or particles in a stream.

In the next assay the target is T2, human ASIC1 (human, UniProt P78348 1-528).
T2 sequence: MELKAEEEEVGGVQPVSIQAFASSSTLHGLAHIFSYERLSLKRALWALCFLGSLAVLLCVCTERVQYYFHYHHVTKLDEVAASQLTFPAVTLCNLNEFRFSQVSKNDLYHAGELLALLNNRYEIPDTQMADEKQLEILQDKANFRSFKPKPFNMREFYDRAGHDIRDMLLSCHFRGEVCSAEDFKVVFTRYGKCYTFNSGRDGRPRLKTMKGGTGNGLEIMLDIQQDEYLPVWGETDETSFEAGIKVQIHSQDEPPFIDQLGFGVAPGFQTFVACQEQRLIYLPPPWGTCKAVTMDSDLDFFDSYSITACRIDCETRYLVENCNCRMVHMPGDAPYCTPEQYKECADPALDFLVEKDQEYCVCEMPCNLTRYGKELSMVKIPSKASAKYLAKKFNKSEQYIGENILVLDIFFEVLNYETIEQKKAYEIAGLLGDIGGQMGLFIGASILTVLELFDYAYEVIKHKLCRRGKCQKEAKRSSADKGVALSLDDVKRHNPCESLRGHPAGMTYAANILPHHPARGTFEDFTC
As to the kind of experiment: cell-based or functional assay.

B1: H3M6726N (antibody, V domains shown)
VH: EVQLLESGGVLVQPGGSLRLSCAASGFNFNNYDMSWVRQAPGKGLEWVSVISASGRNTYYADSVKGRFTISRDNSKISLYLQMNSLRPEDTAVYYCAKDHLVHYYYGMDVWGQGTTVTVSS
VL: DIMMTQSPLSLSVTPGEPASISCRSSQSLLHSNGYNYLDWYLQKSGQSPHLLIYLGSNRASGVPDRFSGSGSGTDFTLKISRVEAEDGGVYYCMQALQTPRTFGQGTKVEIK
notes: Chimeric: human variable, mouse constant domains; H3M prefix marks the Fc, isotype not spelled out
Consider B1, for which the binding result in the assay with mouse ASIC1a is given as “binds”. Moreover, the “apparent IC50, human ASIC1 current, Q-Patch” value with human ASIC1 is over 10 nM.

B2: H3M7102N (antibody, V domains shown)
VH: EVQLLASGGGLVQPGGSLRLSCAASGFTFSSFAMSWVRQAPGKGLEWVSGISGSGGSTYYADSVKGRFTISRDNSKNTLYLQMNSLRAEDTAAYYCAKEAYKWQPWGQGIRVTVSS
VL: DIQMTQSPSTLSASVGDRVSITCRASQSISSWLAWYQQKPGKAPKLLIYKASNLDSGVPSRFSGSGSGTDFTLTISSLQPDDFATYYCQQYNSYSYTFGQGTKLEIK
notes: as for B1
Regarding B2, the binding result with mouse ASIC1a is “binds”. Besides, the “apparent IC50, human ASIC1 current, Q-Patch” value with human ASIC1 was at most 10 nM.
